T1: MCL-1 (Mus musculus, UniProt P97287)
T1 chain: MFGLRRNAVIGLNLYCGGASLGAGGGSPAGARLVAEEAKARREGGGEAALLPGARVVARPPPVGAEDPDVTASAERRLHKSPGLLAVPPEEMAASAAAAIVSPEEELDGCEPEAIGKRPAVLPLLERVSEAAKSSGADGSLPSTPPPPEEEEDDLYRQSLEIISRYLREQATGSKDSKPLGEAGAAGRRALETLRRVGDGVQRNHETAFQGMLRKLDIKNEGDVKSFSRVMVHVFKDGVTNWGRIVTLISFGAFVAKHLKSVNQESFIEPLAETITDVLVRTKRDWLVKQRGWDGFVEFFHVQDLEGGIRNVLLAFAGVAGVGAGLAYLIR


Target: T1, MCL-1
Test: surface plasmon resonance

Kd	Binder
0.134 µM	EDIIRNIARHLAQVGDSMDRSI [BID BH3 peptide]
3.44 µM	GRLAEVCTVLLRLGDELEQIRPSVY [BOK BH3 peptide BH3]

Source: PMC5018360 (2017)
